This note sets out measurements from article PMC3975076, “High-throughput binding characterization of RNA aptamer selections using a microplate-based multiplex microcolumn device”.

In series [1] the target is T1, UBLCP1 (UniProt Q8WVY7).
T1 sequence: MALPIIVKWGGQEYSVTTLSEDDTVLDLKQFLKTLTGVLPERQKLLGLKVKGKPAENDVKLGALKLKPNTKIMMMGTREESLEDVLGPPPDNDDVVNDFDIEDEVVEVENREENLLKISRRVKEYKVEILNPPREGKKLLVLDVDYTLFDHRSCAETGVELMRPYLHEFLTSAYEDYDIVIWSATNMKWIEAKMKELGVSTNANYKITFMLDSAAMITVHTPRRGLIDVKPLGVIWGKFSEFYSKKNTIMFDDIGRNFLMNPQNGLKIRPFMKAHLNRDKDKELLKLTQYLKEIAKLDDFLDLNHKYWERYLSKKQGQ
In words: affinity microcolumn + qPCR. The conditions noted are these: value is average over all 7 other targets; Binding buffer (composition, pH and temperature not in material) with 10 ug/mL yeast tRNA; serial: 4.75 nM N70 library + 50 pM each aptamer/BBS, 1 mL, protein …. Background: Real-time PCR tracks product formation cycle by cycle.

Series [2] deals with GFP (UniProt P42212). In words: affinity microcolumn + qPCR. As to conditions: GFP 0.6 ug/uL resin; serial; Binding buffer (composition, pH and temperature not in material) with 10 ug/mL yeast tRNA; serial: 4.75 nM N70 library + 50 pM each aptamer/BBS, 1 mL, protein ….
Series [3] has as its target T2, NELF-E (Drosophila, UniProt P92204 1-280).
T2 sequence: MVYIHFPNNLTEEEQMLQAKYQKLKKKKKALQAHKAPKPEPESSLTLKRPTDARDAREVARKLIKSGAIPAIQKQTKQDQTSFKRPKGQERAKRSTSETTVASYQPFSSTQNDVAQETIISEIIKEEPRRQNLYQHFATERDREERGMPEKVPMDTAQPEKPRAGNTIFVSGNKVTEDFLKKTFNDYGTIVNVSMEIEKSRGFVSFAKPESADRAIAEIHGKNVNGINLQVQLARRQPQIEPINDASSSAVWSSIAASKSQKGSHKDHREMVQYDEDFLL
Kind of series: affinity microcolumn + qPCR; NELF-E 0.6 ug/uL resin; serial; Binding buffer (composition, pH and temperature not in material) with 10 ug/mL yeast tRNA; serial: 4.75 nM N70 library + 50 pM each aptamer/BBS, 1 mL, protein 0.6 ug/uL resin; wash 3 mL at 300 uL/min. The conditions noted are these: protein: recombinant; tags: His6.

For “GGGAAUGGAUCCACAUCUACGAAUUCAAUCAAGUCCCCAGACUCAGCAACACUGGACAGCGAUAUGCAGAUAACCAAGACCAAUUCACUCCAGUUCACUGCAGACUUGACGAAGCUU [HSFapt]”, in series [1], the binding signal (fold enrichment over N70 library) was 2.

In the case of “GGGAAUGGAUCCACAUCUACGAAUUCCCAACGACUGCCGAGCGAGAUUACGCUUGAGCGCCCCACUGAGGAUGCCCACGGGCGAUUGGGGCACGGCUUCACUGCAGACUUGACGAAGCUU [NELFapt]”, in series [1], the binding signal (fold enrichment over N70 library) amounted to 1.6.

On to “AGCUUCUGGACUGCGAUGGGAGCACGAAACGUCGUGGCGCAAUUGGGUGGGGAAAGUCCUUAAAAGAGGGCCACCACAGAAGCU [GFPapt (AP3-1)]”, for which the binding signal (fold enrichment over N70 library) turned out to be 750 in series [2] and 0.6 in series [1].

B1: NELFapt (structured_RNA)
RNA: GGGAAUGGAUCCACAUCUACGAAUUCCCAACGACUGCCGAGCGAGAUUACGCUUGAGCGCCCCACUGAGGAUGCCCACGGGCGAUUGGGGCACGGCUUCACUGCAGACUUGACGAAGCUU
With B1, the binding signal in series [3] is 262 fold enrichment over N70 library.
